Data reported in the supplement of paper PMC12636428.

Tested on: Saccharomyces cerevisiae
Experiment: transcriptional activation domain activity (GFP:mCherry ratio, weighted mean of sorted bins, harmonized to initial dataset scale) (arbitrary fluorescence ratio units); higher = stronger transcriptional activation
Conditions: beta-estradiol 1 µM; induction time 4 h
Summary of the method: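 Each value is an activation activity: the read-weighted mean of bin median fluorescence, averaged across barcodes, then mapped linearly to the initial dataset scale. The tiles, fused to an estradiol-inducible synthetic transcription factor, sat at the yeast URA3 locus in GFP-reporter diploids. Cells spent 4 hours at 30 °C in SC with 1 uM beta-estradiol before sorting into 8 GFP:mCherry bins, and tiles below 50 reads were removed.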

Row | Sequence | transcriptional activation domain activity
1 | TGGLAELQDTLDDARASFAYVRVKYSNDKESQREKFILIVWIGKSVKVMRRAK | 33600
2 | TGGLPELREHLDDGRASYAYARVTYSNDKESQREKFVLVVWIGPACKVMRKAK | 25700
3 | TGGSLFGANKPAFGNAASTSGPFGGGASSGFGGNTGAFGSPASTALGATTGEC | 51300
4 | TGILAVTLWNIFINKYWPKRRALVVIVILLHVLITVNFATNWAFTYSAFIQNG | 49800
5 | TGKRKFRSSFLLYLAARWCPLFCVITILVGVDPINRINCQAYVVFAFLFANIS | 52000
6 | TGLDGTAYVMFWTINVNVLMLLSQWILEERVRSRALQFCFRYYYFMVYFIFYR | 55300
7 | TGNSVWAFHALLSKGYFHMLCKDIDINPERVLATLMLVLSHIFERQLCKHSDI | 48500
8 | TGPTNVGLIILIIVSFFQFNFFLPVHQSFAPKLLKHHYIIYRMICSQLSYLVL | 60900
9 | TGQGGLEEVKGKLDETKASFAYVRITYANDKESQREKFILIIFIGAEVKVMRK | 37500
10 | TGRLQFKWAFVPYILARFVLLGQLLALTLVLRNLQTLIHCGKVLRWLTIVSNV | 60000
11 | TGSTIVRGVLHVFSDQKVNLEQISFGQLNKMIGLLGERRDYRTLSWLLTILWN | 73300
12 | TGTEQKKGIGGRRRRSKQASKQGSRPVCGHACACVCLCVPCLSCVCVSVLHLL | 67800
13 | TGVGLGVCARHEFVLANSAVDLQRGERYANMDYCAASLLRHICLLLFIVFLYD | 57700
14 | TGWCCLLMSIFSFNHAVLFVAFIFPNGVSCRKLLWNAMIGYVISLECSNLLLL | 60800
15 | TGYKKKKLGHPSEKVVERHASCEPGTRLYSQKLFGRYVLRLLFVVAYMFVKSF | 34800
16 | THHAFPLRLLVAIVVLLDCHSLLQIALGTCTWAISYHVRPFALTTVILCCSIT | 41300
17 | THSKKQHCDVCKHPYSFTKVYASDMPKQLPLLLVLRKLVQQFFSVLLFSIRAI | 45400
18 | THYLCFIFSPRKLWPMNTQVSIPLFHLLILPVSPWIKQLYWLVFWNLFFVWWM | 56200
19 | TIALMGQDSIYLQVLAGDPNEAQSKNARRVYRLLKRGKHWVLVTLLLSNVIVN | 27400
20 | TIDSSGVVLTPDPLSFDIGNFDSFSTSLYGFWPLTNAFDFTPYNSGSLAWLLL | 99800
21 | TIGFVGFVMSLQKGYLKQQFGLFCWVHMSLLIIVLSSHFIVNNILEGLIWFWV | 58700

Row | Sequence | transcriptional activation domain activity
22 | TIHHLKDSRSSSWTVAIDNNSNNNKVSDNQPDFVDFQELLDNDTLGNDLLETT | 61400
23 | TIHLVNTIQVIVLILDRFLYGIIPLFEIHTCAFFPLLISFWHVSYLLYYVIMF | 37200
24 | TIIGLTSAVLLPVVVFIPYIPCWLFLYLVNLLFPLIFICFTGKVIQLTFLYYS | 50100
25 | TIITNRGTIPNGLGRDIWTLQPDMITSFAYWFYHMEYAYFLNLVLLKASILFF | 57800
26 | TIMYGVRFVVVLLTMEIMIHFMYMVAIFHAKPDWSAYTPFQLSMLGYFNLNHI | 46200
27 | TINLSLPPRDRYVLVATDYAHVLREMPCLYDEAVQHMKLPAGFFHLLGRILLR | 58100
28 | TIPGLIRTSPRFGIMLLCLLLSIIFLFTDVIFMIVVSRRGGMNPFWRLALVFK | 52600
29 | TISRLVFAECFAESCVMFLLLMFQALDVLEPSSRLLNWRISLYILMSMILLFV | 52800
30 | TISYLILAGSDYFEWCYLSIYQYSTLCNSSLLDVWRDIQYLWILIMFIWNILP | 52100
31 | TIVLEELRRASYWGRPSLERSWLLLDMTIKSFTGFIRLLDGDLARTICLFYLV | 76100
32 | TIVLSAMQVGLATQFLVDDYAFSMASYVFSVFAILAPLSAIAAILFVLVLLFA | 49900
33 | TKAATGGTASSSKPQLAVQKKQQPAEGKKQPVTQKLPPAAAQKLQQKAPATAA | 29300
34 | TKCSLDKMLPMLLPLKDALVHMDLMEYYFQTGYLYYLAFSCFILLLYPPFMVL | 53800
35 | TKFYPNKSIETQLMKNKYCDVVHLTRYAAWSNNKKDQDTSSQPLIDEIFGLYS | 61500
36 | TKGEFHKIAVIFTSTVVAGMVIMYFWILKQIPFMVGLVVWGWVGISQGFFAVN | 55800
37 | TKIGTGMGEQMLSREYYYIGTQLPLDRFLTFYYAHPGFHVNNIFIMLSVQLFM | 51100
38 | TKLCTIGINCIFIIWHIADILIESPSHLPDIFTVFNVIISCSLFLLLFVYFVY | 27600
39 | TKPAEASAADKKPEEAKPAEAPAPAAAPAAAEAPKAEEKPAPAPAPTEAPKAE | 21400
40 | TKPAPKKAGGRPKKVVAEPEPAAEPSESEEPKLAPKRAGGRPKKVVAPVAEPE | 19400
41 | TKQGHELLHQLRHLIIFREGMPCSDITLKLDIHVSKLVFVFLSAFEHGLCSKD | 58200
42 | TKTVKDTTPATNHMDDDIAMFDSLATTQPIDIAASNQQNGEIAQLWDFNVDQF | 77600

Row | Sequence | transcriptional activation domain activity
43 | TLAGMIRENDEEQKSRGITRIKELEIKCLIEGAYGINRPMHLFETAVVIAGGV | 54500
44 | TLAPNGSSNLVHLFAAHSIGKVRSSLLSSLNRKFSSNPSSPCSYFLIFQLFTR | 61100
45 | TLDTVMRDTANMDWVRFLPLSLLFTSFIFSPLSFSLFRMYVHALLFFCFTFTP | 49600
46 | TLELFKLKLVRPASKVYHMGGCAELWGFLVMQNHFRDGEGGHFNSITIDVKWA | 59800
47 | TLFTGMHKNIIRLLPYRVARILYILLRVVRPVELMPILKFWIPVGNNKANAAV | 40700
48 | TLGFVGFVTTLKKVTLRRQFGLFCWIHISLFLIVVSSHFIVNSILEGLIWFWL | 74700
49 | TLGFVVDRYFRVKNFVPEPFWTIKVMHHKDGKKVNFNWARHRLFDRMSVIILY | 64300
50 | TLHFFQPIAKWFGIKKSSKLIRFGEQGHAMAYFAVTSCWGLRVMRQLPTWWYR | 41500
51 | TLHHKHVVLWNTSRQVATEVIRLPFSCSGKMLCLLLLPEAEDGLKRVHVVALS | 25600
52 | TLHIVLVSYGMYFYLILNFANIAALLSPSWAFLVQVYLTCISDTVVRSVFFSR | 69200
53 | TLHVCFVEMRLADVVVDFLSRCSATINLAFFDTRLWHPNLLPILGALPLQRLS | 87200
54 | TLIHEPDQLLFFPFFLFALFLSFPSFLLPSFFLLFLLFYFFPSYLLLCLFSFI | 51700
55 | TLKALCRFITWLSIEHIMGANLIYKLKAWLKMYRNLVIQCYIEIANLDIPTSV | 56900
56 | TLKGIVLRNPVTLRLEEEEDDAANLTQYFVKCSEVDKFLLIQVMIKMRMIKGK | 46700
57 | TLLASFVIDHLKEGVASDEIVLFAFADFQDTRSTNVVVLLRTLLAQLLDRCKP | 65200
58 | TLLFQIVIAFIDILRHLSLYKIEIENDTICALVGASMNFSDHIYVAFNTLLAI | 49500
59 | TLLIASLLVVLCLLRRFLLSILCNRDFYMIKFYTFFLYQILLCSLLKCLRLLW | 80500
60 | TLLYLYTFSFLFPPLLFILILLHLHHLSSSHLFFIHSIILSHNKLWPLLFLLS | 53400
61 | TLMVLCENSYTTISRFILLDSMLLFFTFTTMLCFARFHNLQSRSFSFQWWLWI | 51800
